In assay [1] the target is T1, Homo sapiens AXL - Mus musculus FN2 domain (p33-AXL-mFN2) (human (Homo sapiens) AXL with mouse …, UniProt P30530 26-894).
T1 construct: also called hsAXL-mmFN2
T1 chain: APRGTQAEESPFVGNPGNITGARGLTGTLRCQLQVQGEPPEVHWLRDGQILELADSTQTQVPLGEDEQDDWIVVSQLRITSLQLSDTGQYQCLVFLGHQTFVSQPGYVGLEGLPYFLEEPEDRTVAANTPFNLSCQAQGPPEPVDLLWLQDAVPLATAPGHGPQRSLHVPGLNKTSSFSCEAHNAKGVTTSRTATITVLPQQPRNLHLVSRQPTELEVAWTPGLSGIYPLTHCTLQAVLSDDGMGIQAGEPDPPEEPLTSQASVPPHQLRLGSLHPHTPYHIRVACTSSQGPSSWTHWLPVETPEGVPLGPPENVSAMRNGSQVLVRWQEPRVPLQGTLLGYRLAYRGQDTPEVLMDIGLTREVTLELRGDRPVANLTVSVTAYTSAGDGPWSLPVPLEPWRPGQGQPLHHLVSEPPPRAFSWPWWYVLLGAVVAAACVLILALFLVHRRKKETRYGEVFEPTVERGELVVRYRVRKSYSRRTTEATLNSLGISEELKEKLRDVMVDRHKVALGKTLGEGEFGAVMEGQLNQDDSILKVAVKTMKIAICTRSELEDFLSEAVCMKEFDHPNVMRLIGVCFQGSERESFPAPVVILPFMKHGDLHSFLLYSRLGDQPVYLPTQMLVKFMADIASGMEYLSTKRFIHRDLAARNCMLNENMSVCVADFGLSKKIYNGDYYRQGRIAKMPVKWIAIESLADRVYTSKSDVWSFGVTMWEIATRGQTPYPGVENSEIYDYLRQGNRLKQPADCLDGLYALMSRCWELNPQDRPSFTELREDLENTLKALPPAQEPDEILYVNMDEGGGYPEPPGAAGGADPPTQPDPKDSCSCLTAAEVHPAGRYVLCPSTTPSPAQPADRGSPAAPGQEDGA
Kind of assay: flow cytometry, transfected HEK293F cells.

Assay [2] has as its target T2, Mus musculus AXL (p33-HAMm-AXL) (human (Homo sapiens) AXL with mouse …, UniProt Q00993 1-888 (mouse entry)).
T2 construct: also called hsAXL-mmECD
T2 chain: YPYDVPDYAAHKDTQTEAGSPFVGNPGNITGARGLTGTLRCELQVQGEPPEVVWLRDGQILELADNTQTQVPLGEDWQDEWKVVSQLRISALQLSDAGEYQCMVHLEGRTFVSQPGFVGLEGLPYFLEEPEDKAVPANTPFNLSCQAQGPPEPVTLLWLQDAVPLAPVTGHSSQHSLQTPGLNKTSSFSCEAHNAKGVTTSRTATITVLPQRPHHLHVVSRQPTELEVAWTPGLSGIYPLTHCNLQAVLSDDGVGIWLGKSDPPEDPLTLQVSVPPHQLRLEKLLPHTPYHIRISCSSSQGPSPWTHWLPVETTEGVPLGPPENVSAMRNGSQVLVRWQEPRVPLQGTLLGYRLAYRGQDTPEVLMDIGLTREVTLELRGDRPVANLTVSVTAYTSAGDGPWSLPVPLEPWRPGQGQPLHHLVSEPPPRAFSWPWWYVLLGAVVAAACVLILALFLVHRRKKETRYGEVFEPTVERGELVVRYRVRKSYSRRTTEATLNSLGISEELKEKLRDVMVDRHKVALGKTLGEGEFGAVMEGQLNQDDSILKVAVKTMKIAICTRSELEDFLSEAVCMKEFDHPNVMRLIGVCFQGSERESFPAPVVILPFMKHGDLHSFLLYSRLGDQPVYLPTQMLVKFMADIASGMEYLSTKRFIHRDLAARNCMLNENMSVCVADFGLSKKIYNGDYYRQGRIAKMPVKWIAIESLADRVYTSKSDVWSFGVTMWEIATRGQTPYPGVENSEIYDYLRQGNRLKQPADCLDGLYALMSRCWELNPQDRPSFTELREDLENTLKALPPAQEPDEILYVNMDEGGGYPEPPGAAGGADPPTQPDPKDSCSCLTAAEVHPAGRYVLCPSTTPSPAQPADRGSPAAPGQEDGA
Kind of assay: flow cytometry, transfected HEK293F cells. (In general: In flow cytometry, cells or beads pass a laser one at a time.)

B1: IgG1-AXL-726 (antibody, V domains shown)
VH: QVQLQQWGAGLLKPSETLSLTCAIDGGSFSGYYWSWIRQPPGKGLEWIGEISHSGRTNYNPSLKSRVTISIDTSKNQFSLKLSSVAAADTAVYYCARFITMIRGAIITHFDYWGQGALVTVSS
VL: DIQMTQSPSSLSASVGDRVTITCRASQGISSWLAWYQQKPEKAPKSLIYAASSLQSGVPSRFSGSGSGTDFTLTISSLQPEDFATYYCQQYHSYPYTFGQGTKLEIK
notes: expressed as IgG1,κ
Take B1: in assay [1], the binding result is on record as “no binding (tested: 1 µg/mL)”.

B2: IgG1-AXL-061 (antibody, V domains shown)
VH: QVQLVQSGAEVKKPGASVKVSCKASGYAFTGYGISWVRQAPGQGLEWIGWISAYNGNTNYVQNLQDRVTMTTDTSTSTAYMELRSLRSDDTAVYYCARDHISMLRGIIIRNYWGQGTLVTVSS
VL: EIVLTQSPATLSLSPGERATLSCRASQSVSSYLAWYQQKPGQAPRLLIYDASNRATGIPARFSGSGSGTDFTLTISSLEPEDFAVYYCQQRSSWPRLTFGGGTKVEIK
notes: expressed as IgG1,κ
Consider B2, for which, in assay [2], the binding result is “no binding (tested: 1 µg/mL)”.

B3: IgG1-AXL-137 (antibody, V domains shown)
VH: QVQLVQSGAEVKKPGSSVKVSCKASGGTFSRYAISWVRQAPGQGLEWMGRIIPIVGIANYAQKFQGRVTLTADKSTSTAYMELSSLRSEDTAVYYCAREAGYSSSWYAEYFQHWGQGTLVTVSS
VL: not shown
notes: expressed as IgG1,κ
Consider B3, for which, in assay [2], the binding result is listed as “no binding (tested: 1 µg/mL)”.

B4: IgG1-AXL-613 (antibody, V domains shown)
VH: QVQLVQSGAEVKKPGSSVKVSCKASGGTFSSYAINWMRQAPGQGLEWMGRIIPIFGIVNYAQKFQGRVTLTADKSTSTAYMELSSLRSEDTAVYYCARRGNYYGSGSPDVFDIWGQGTMVTVSS
VL: not shown
notes: expressed as IgG1,κ
With B4, the binding result in assay [2] is listed as “no binding (tested: 1 µg/mL)”.

For the origin of these results see patent US20230321261A1 (published 2023).
